The text below walks through data of US20170355730A1 (ENTRADA THERAPEUTICS, published 2017).

Assay [1] has as its target T1, ybbR-tagged PTP1B catalytic domain (amino acids 1-321) (UniProt P18031 1-321, Texas Red attached through CoA/Sfp to the ybbR tag (library screening only)).
T1 sequence: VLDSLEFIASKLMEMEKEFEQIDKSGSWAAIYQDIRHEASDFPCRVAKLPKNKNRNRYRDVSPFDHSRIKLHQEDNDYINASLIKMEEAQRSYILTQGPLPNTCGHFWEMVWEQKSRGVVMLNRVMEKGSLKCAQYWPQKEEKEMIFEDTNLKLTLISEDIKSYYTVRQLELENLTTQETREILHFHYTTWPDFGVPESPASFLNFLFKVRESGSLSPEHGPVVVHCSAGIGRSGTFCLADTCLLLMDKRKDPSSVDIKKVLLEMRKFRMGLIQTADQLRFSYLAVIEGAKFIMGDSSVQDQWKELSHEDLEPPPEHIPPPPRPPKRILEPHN
The experiment in a line: cell-based or functional assay.

In assay [2] the target is T2, Caspase-3, Human, recombinant protein (human, UniProt P42574 29-277, limits assumed).
T2 sequence (looked up): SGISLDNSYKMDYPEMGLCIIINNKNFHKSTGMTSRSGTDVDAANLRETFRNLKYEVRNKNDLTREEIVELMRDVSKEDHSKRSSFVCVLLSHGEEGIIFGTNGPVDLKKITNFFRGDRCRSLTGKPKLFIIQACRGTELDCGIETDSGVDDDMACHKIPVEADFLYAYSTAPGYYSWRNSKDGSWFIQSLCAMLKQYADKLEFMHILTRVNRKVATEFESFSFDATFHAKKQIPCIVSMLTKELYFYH
The experiment in a line: cell-based or functional assay.

Assay [3] deals with T2, Caspase-3, Human, recombinant protein. The experiment in a line: cell-based or functional assay. The source holds these as a separate data set.
Assay [4] addresses Pin4 (human, UniProt Q9Y237 1-131, limits assumed). The experiment in a line: cell-based or functional assay.
The target of assay [5] is T1, ybbR-tagged PTP1B catalytic domain …. The experiment in a line: PTP1B-catalyzed pNPP hydrolysis, competitive inhibition (Lineweaver-Burk and secondary plot).
Assay [6] concerns the target CAL-PDZ domain (UniProt Q9HD26 286-370). The experiment in a line: fluorescence anisotropy, FITC-labeled peptide, in the presence of 2 mM tris(carboxylethyl)phosphine. (In general: Polarisation of emitted light reports the rotation of a fluorescent probe.)

Starred links: 1 amine or outer side, 2 acyl side, 3 side chain; linkers in the order of their positions; H or OH if unused. Non-standard residues stand in square brackets, D forms with d. Primed or numbered codes have the meaning given here. No end group written: not given here. *: point of attachment. FITC = O=C1OC2(c3ccc(O)cc3Oc3cc(O)ccc32)c2ccc(NC(=S)*)cc21; Trimesoyl = O=C(c1cc(C(=O)[*:2])cc(C(=O)[*:3])c1)[*:1]; F2Pmp = N[C@@H](Cc1ccc(C(F)(F)P(=O)(O)O)cc1)C(=O)O; Phe(4-F) = N[C@@H](Cc1ccc(F)cc1)C(=O)O; dPhe(4-F) = N[C@H](Cc1ccc(F)cc1)C(=O)O; 2Nal = N[C@@H](Cc1ccc2ccccc2c1)C(=O)O; Pip′ = L-homoproline (pipecolyl); AMC = Cc1cc(=O)oc2cc(N*)ccc12; Phg = N[C@H](C(=O)O)c1ccccc1; Nle = CCCC[C@H](N)C(=O)O; Abu = CC[C@H](N)C(=O)O; Dap = NC[C@H](N)C(=O)O; Butyryl = CCCC(=O)*

Pin4, sequence (Q9Y237 whole entry, the tested form may be a part): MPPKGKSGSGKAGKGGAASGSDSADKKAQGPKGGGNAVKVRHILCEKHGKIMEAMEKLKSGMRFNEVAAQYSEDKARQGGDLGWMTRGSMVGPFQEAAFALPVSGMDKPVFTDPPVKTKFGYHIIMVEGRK

B1: Monocyclic Inhibitor 1 (peptide)
peptide: cyclo([dT][dN][dV][F2Pmp][dA]RRRR[2Nal]FQ)
SMILES: CC(C)[C@H]1NC(=O)[C@@H](CC(N)=O)NC(=O)[C@@H]([C@H](C)O)NC(=O)[C@H](CCC(N)=O)NC(=O)[C@H](Cc2ccccc2)NC(=O)[C@H](Cc2ccc3ccccc3c2)NC(=O)[C@H](CCCNC(=N)N)NC(=O)[C@H](CCCNC(=N)N)NC(=O)[C@H](CCCNC(=N)N)NC(=O)[C@H](CCCNC(=N)N)NC(=O)[C@@H](C)NC(=O)[C@H](Cc2ccc(C(F)(F)P(=O)(O)O)cc2)NC1=O
For B1, the “IC50 (inhibition of pNPP hydrolysis)” value in assay [1] is ~100 nM.

B2: peptide 7 (Table 10, R9 conjugate) (peptide)
peptide: Ac-RRRRRRRRRD[Nle][Abu]D-{AMC}
SMILES: CCCC[C@H](NC(=O)[C@H](CC(=O)O)NC(=O)[C@H](CCCNC(=N)N)NC(=O)[C@H](CCCNC(=N)N)NC(=O)[C@H](CCCNC(=N)N)NC(=O)[C@H](CCCNC(=N)N)NC(=O)[C@H](CCCNC(=N)N)NC(=O)[C@H](CCCNC(=N)N)NC(=O)[C@H](CCCNC(=N)N)NC(=O)[C@H](CCCNC(=N)N)NC(=O)[C@H](CCCNC(=N)N)NC(C)=O)C(=O)N[C@@H](CC)C(=O)N[C@@H](CC(=O)O)C(=O)Nc1ccc2c(C)cc(=O)oc2c1
In the case of B2, the “decrease of activity relative to peptide 3” value in assay [2] worked out at 72%. For the same molecule, the ΔFU/min in assay [3] was 45.3 ΔFU/min.

On to Butyryl-RRRR[2Nal]FD[Nle][Abu]D-{AMC} [peptide 6 (Table 10, linear control)], for which, in assay [2], the “decrease of activity relative to peptide 3” value worked out at 53%. The ΔFU/min in assay [3] was 74.7 ΔFU/min.

On to cyclo(IP[Phg][F2Pmp][Nle]RRRR[2Nal]FQ) [Monocyclic Inhibitor 3], for which the “IC50 (inhibition of pNPP hydrolysis)” value in assay [1] was ~200 nM.

B3: peptide 3 (Table 10, caspase 3/7 substrate) (peptide)
peptide: Ac-D[Nle][Abu]D-{AMC}
SMILES: CCCC[C@H](NC(=O)[C@H](CC(=O)O)NC(C)=O)C(=O)N[C@@H](CC)C(=O)N[C@@H](CC(=O)O)C(=O)Nc1ccc2c(C)cc(=O)oc2c1
For the molecule B3, the ΔFU/min in assay [3] is 159 ΔFU/min.

B4: peptide 37 (Table 18) (peptide)
peptide: Trimesoyl-[dPhe(4-F)][Phe(4-F)][dT][Pip′][2Nal]RA[dF][Dap]F[2Nal]RRRR[Dap]K
modifications: linker (positions not given here) via Trimesoyl; not fully specified (bridges); printed as bicyclo[Tm-(D-4-Fpa-Fpa-D-Thr-Pip-Nal-Arg-Ala-D-Phe)-Dap-(Phe-Nal-Arg-Arg-Arg-Arg-Dap)]-Lys
For the molecule B4, the “IC50 of Pin4 isomerase activity” value in assay [4] was ~34000 nM.

On to cyclo(S[dV]P[F2Pmp]HRRRR[2Nal]FQ) [Monocyclic Inhibitor 2], for which the “IC50 (inhibition of pNPP hydrolysis)” value in assay [1] is ~30 nM. The molecule also showed a Ki in assay [5] of 54 nM.

B5: peptide 8 (Table 10, CAL-PDZ inhibitor), reduced linear form (peptide)
peptide: {FITC}-CRRRRFWQCTRV
modifications: also: disulfide reduced by TCEP (free thiols)
notes: As assayed in the presence of 2 mM tris(carboxylethyl)phosphine
Regarding B5, the Kd in assay [6] is 489 nM.

By Ki is commonly meant the dissociation constant of the complex between target and ligand, obtained from inhibition or displacement. High values mean lower affinity, low ones higher affinity. A word on the Kd: it is a measure of binding affinity in units of concentration.
